The Immune Epitope Database (IEDB)
One block for each sequence: values may come before it.

Assays:
[1] = target: HLA-A*02:01; assay: IEDB peptide-MHC binding, purified MHC/direct/fluorescence; filed as Kd, often an IC50 or EC50 that approximates it; ≥ and ≤ were set here for values at or beyond the usual limits of such assays
[2] = target: HLA-A*02:11; assay: as above; details: source organism: Yersinia enterocolitica subsp. enterocolitica 8081
[3] = target: HLA-A*69:01; assay: as above
[4] = target: HLA-A*02:50; assay: IEDB peptide-MHC binding, purified MHC/competitive/fluorescence; filed as Kd, often an IC50 or EC50 that approximates it; ≥ and ≤ were set here for values at or beyond the usual limits of such assays
[5] = target: HLA-B*07:02; assay: as above
[6] = target: HLA-B*08:01; assay: as above
[7] = target: HLA-B*15:01; assay: as above
[8] = target: HLA-B*51:01; assay: as above
[9] = target: HLA-B*58:01; assay: as above; details: source organism: Escherichia coli
[10] = target: HLA-A*02:01; assay: as above; details: source organism: Burkholderia mallei SAVP1
[11] = target: HLA-A*02:03; assay: as above; details: source organism: Burkholderia mallei SAVP1
[12] = target: HLA-A*02:11; assay: as above; details: source organism: Burkholderia mallei SAVP1
[13] = target: HLA-A*02:12; assay: as above; details: source organism: Burkholderia mallei SAVP1
[14] = target: HLA-A*02:16; assay: as above; details: source organism: Burkholderia mallei SAVP1
[15] = target: HLA-A*02:19; assay: as above; details: source organism: Burkholderia mallei SAVP1
[16] = target: HLA-A*03:01; assay: as above; details: source organism: Burkholderia mallei SAVP1
[17] = target: HLA-A*23:01; assay: as above; details: source organism: Burkholderia mallei SAVP1
[18] = target: HLA-A*24:03; assay: as above; details: source organism: Burkholderia mallei SAVP1
[19] = target: HLA-A*26:01; assay: as above; details: source organism: Burkholderia mallei SAVP1
[20] = target: HLA-A*29:02; assay: as above; details: source organism: Burkholderia mallei SAVP1
[21] = target: HLA-A*31:01; assay: as above; details: source organism: Burkholderia mallei SAVP1
[22] = target: HLA-A*68:02; assay: as above; details: source organism: Burkholderia mallei SAVP1
[23] = target: HLA-A*69:01; assay: as above; details: source organism: Burkholderia mallei SAVP1
[24] = target: HLA-B*15:17; assay: as above; details: source organism: Burkholderia mallei SAVP1
[25] = target: HLA-B*18:01; assay: as above; details: source organism: Burkholderia mallei SAVP1
[26] = target: HLA-B*27:03; assay: as above; details: source organism: Burkholderia mallei SAVP1
[27] = target: HLA-B*39:01; assay: as above; details: source organism: Burkholderia mallei SAVP1
[28] = target: HLA-B*46:01; assay: as above; details: source organism: Burkholderia mallei SAVP1
[29] = target: HLA-B*57:01; assay: as above; details: source organism: Burkholderia mallei SAVP1
[30] = target: HLA-A*01:01; assay: IEDB peptide-MHC binding, purified MHC/direct/fluorescence; filed as Kd, often an IC50 or EC50 that approximates it; ≥ and ≤ were set here for values at or beyond the usual limits of such assays; details: source organism: Escherichia coli 536
[31] = target: HLA-A*03:01; assay: as above; details: source organism: Escherichia coli
[32] = target: HLA-A*11:01; assay: as above; details: source organism: Escherichia coli 536
[33] = target: HLA-A*26:01; assay: as above; details: source organism: Escherichia coli 536
[34] = target: HLA-A*31:01; assay: as above; details: source organism: Escherichia coli 536
[35] = target: HLA-B*07:02; assay: as above; details: source organism: Escherichia coli 536
[36] = target: HLA-B*08:01; assay: as above; details: source organism: Escherichia coli 536
[37] = target: HLA-B*15:01; assay: as above; details: source organism: Escherichia coli
[38] = target: HLA-B*27:05; assay: as above; details: source organism: Escherichia coli 536
[39] = target: HLA-B*40:01; assay: as above; details: source organism: Escherichia coli 536
[40] = target: HLA-B*58:01; assay: as above; details: source organism: Escherichia coli 536
[41] = source organism: Yersinia pestis
[42] = source organism: Salmonella enterica subsp. enterica serovar Paratyphi B str. SPB7
[43] = source organism: Escherichia coli
[44] = source organism: Burkholderia mallei SAVP1

Sequence: FLRFGDFKL
- Kd [1, 41]: 0.0055 µM
- Kd [2]: 0.104 µM
- Kd [3, 41]: 18.3 µM
- Kd ([4]; source organism: Yersinia pestis Nepal516): ≤ 0.0001 µM

Sequence: LPLAKPMVI
- Kd [5, 42]: 0.0624 µM
- Kd [6, 42]: 0.211 µM
- Kd [7, 42]: ≥ 20 µM
- Kd [8, 42]: 0.626 µM

- Kd [5, 43]: 0.012 µM
- Kd [6, 43]: ≥ 20 µM
- Kd [9]: 0.0293 µM
Sequence: RAAPLMQSL

Sequence: RFNAIWFNH
- Kd [10]: ≥ 20 µM
- Kd [11]: ≥ 20 µM
- Kd [12]: ≥ 20 µM
- Kd [13]: ≥ 20 µM
- Kd [14]: ≥ 20 µM
- Kd [15]: ≥ 20 µM
- Kd [16]: ≥ 20 µM
- Kd [17]: ≥ 20 µM
- Kd [18]: ≥ 20 µM
- Kd [19]: ≥ 20 µM
- Kd [20]: ≥ 20 µM
- Kd [21]: 0.0041 µM
- Kd [22]: ≥ 20 µM
- Kd [23]: ≥ 20 µM
- Kd [7, 44]: ≥ 20 µM
- Kd [24]: ≥ 20 µM
- Kd [25]: ≥ 20 µM
- Kd [26]: ≥ 20 µM
- Kd [27]: ≥ 20 µM
- Kd [28]: ≥ 20 µM
- Kd [8, 44]: ≥ 20 µM
- Kd [29]: ≥ 20 µM

- Kd [30]: ≥ 20 µM
- Kd [1, 43]: 0.507 µM
- Kd [31]: 0.799 µM
- Kd [32]: ≥ 20 µM
- Kd [33]: ≥ 20 µM
- Kd [34]: ≥ 20 µM
- Kd ([3]; source organism: Escherichia coli 536): ≥ 20 µM
- Kd [35]: ≥ 20 µM
- Kd [36]: ≥ 20 µM
- Kd [37]: 0.455 µM
- Kd [38]: ≥ 20 µM
- Kd [39]: ≥ 20 µM
- Kd [40]: ≥ 20 µM
- Kd [4, 43]: 0.0184 µM
Sequence: RMYGISPWT
